Experimental data taken from PMC11574045, “A cofactor-induced repressive type of transcription factor condensation can be induced by synthetic peptides to suppress tumorigenesis” (The EMBO Journal, 2024).

B1: PRMT2 (protein, UniProt P55345 1-433, looked up)
Protein arginine …: MATSGDCPRSESQGEEPAECSEAGLLQEGVQPEEFVAIADYAATDETQLSFLRGEKILILRQTTADWWWGERAGCCGYIPANHVGKHVDEYDPEDTWQDEEYFGSYGTLKLHLEMLADQPRTTKYHSVILQNKESLTDKVILDVGCGTGIISLFCAHYARPRAVYAVEASEMAQHTGQLVLQNGFADIITVYQQKVEDVVLPEKVDVLVSEWMGTCLLFEFMIESILYARDAWLKEDGVIWPTMAALHLVPCSADKDYRSKVLFWDNAYEFNLSALKSLAVKEFFSKPKYNHILKPEDCLSEPCTILQLDMRTVQISDLETLRGELRFDIRKAGTLHGFTAWFSVHFQSLQEGQPPQVLSTGPFHPTTHWKQTLFMMDDPVPVHTGDVVTGSVVLQRNPVWRRHMSVALSWAVTSRQDPTSQKVGEKVFPIWR
B2: RBBP8 (protein, UniProt Q99708 1-897, looked up)
DNA endonuclease RBBP8: MNISGSSCGSPNSADTSSDFKDLWTKLKECHDREVQGLQVKVTKLKQERILDAQRLEEFFTKNQQLREQQKVLHETIKVLEDRLRAGLCDRCAVTEEHMRKKQQEFENIRQQNLKLITELMNERNTLQEENKKLSEQLQQKIENDQQHQAAELECEEDVIPDSPITAFSFSGVNRLRRKENPHVRYIEQTHTKLEHSVCANEMRKVSKSSTHPQHNPNENEILVADTYDQSQSPMAKAHGTSSYTPDKSSFNLATVVAETLGLGVQEESETQGPMSPLGDELYHCLEGNHKKQPFEESTRNTEDSLRFSDSTSKTPPQEELPTRVSSPVFGATSSIKSGLDLNTSLSPSLLQPGKKKHLKTLPFSNTCISRLEKTRSKSEDSALFTHHSLGSEVNKIIIQSSNKQILINKNISESLGEQNRTEYGKDSNTDKHLEPLKSLGGRTSKRKKTEEESEHEVSCPQASFDKENAFPFPMDNQFSMNGDCVMDKPLDLSDRFSAIQRQEKSQGSETSKNKFRQVTLYEALKTIPKGFSSSRKASDGNCTLPKDSPGEPCSQECIILQPLNKCSPDNKPSLQIKEENAVFKIPLRPRESLETENVLDDIKSAGSHEPIKIQTRSDHGGCELASVLQLNPCRTGKIKSLQNNQDVSFENIQWSIDPGADLSQYKMDVTVIDTKDGSQSKLGGETVDMDCTLVSETVLLKMKKQEQKGEKSSNEERKMNDSLEDMFDRTTHEEYESCLADSFSQAADEEEELSTATKKLHTHGDKQDKVKQKAFVEPYFKGDERETSLQNFPHIEVVRKKEERRKLLGHTCKECEIYYADMPAEEREKKLASCSRHRFRYIPPNTPENFWEVGFPSTQTCMERGYIKEDLDPCPRPKRRQPYNAIFSPKGKEQKT
B3: RBM14 (protein, UniProt Q96PK6 1-669, looked up)
RNA-binding protein 14: MKIFVGNVDGADTTPEELAALFAPYGTVMSCAVMKQFAFVHMRENAGALRAIEALHGHELRPGRALVVEMSRPRPLNTWKIFVGNVSAACTSQELRSLFERRGRVIECDVVKDYAFVHMEKEADAKAAIAQLNGKEVKGKRINVELSTKGQKKGPGLAVQSGDKTKKPGAGDTAFPGTGGFSATFDYQQAFGNSTGGFDGQARQPTPPFFGRDRSPLRRSPPRASYVAPLTAQPATYRAQPSVSLGAAYRAQPSASLGVGYRTQPMTAQAASYRAQPSVSLGAPYRGQLASPSSQSAAASSLGPYGGAQPSASALSSYGGQAAAASSLNSYGAQGSSLASYGNQPSSYGAQAASSYGVRAAASSYNTQGAASSLGSYGAQAASYGAQSAASSLAYGAQAASYNAQPSASYNAQSAPYAAQQAASYSSQPAAYVAQPATAAAYASQPAAYAAQATTPMAGSYGAQPVVQTQLNSYGAQASMGLSGSYGAQSAAAATGSYGAAAAYGAQPSATLAAPYRTQSSASLAASYAAQQHPQAAASYRGQPGNAYDGAGQPSAAYLSMSQGAVANANSTPPPYERTRLSPPRASYDDPYKKAVAMSKRYGSDRRLAELSDYRRLSESQLSFRRSPTKSSLDYRRLPDAHSDYARYSGSYNDYLRAAQMHSGYQRRM
B4: PROX1 (protein, UniProt P48437 1-737, looked up)
Prospero homeobox protein 1: MPDHDSTALLSRQTKRRRVDIGVKRTVGTASAFFAKARATFFSAMNPQGSEQDVEYSVVQHADGEKSNVLRKLLKRANSYEDAMMPFPGATIISQLLKNNMNKNGGTEPSFQASGLSSTGSEVHQEDICSNSSRDSPPECLSPFGRPTMSQFDVDRLCDEHLRAKRARVENIIRGMSHSPSVALRGNENEREMAPQSVSPRESYRENKRKQKLPQQQQQSFQQLVSARKEQKREERRQLKQQLEDMQKQLRQLQEKFYQVYDSTDSENDEDGDLSEDSMRSEILDARAQDSVGRSDNEMCELDPGQFIDRARALIREQEMAENKPKREGSNKERDHGPNSLQPEGKHLAETLKQELNTAMSQVVDTVVKVFSAKPSRQVPQVFPPLQIPQARFAVNGENHNFHTANQRLQCFGDVIIPNPLDTFGSVQMPSSTDQTEALPLVVRKNSSEQSASGPATGGHHQPLHQSPLSATAGFTTPSFRHPFPLPLMAYPFQSPLGAPSGSFSGKDRASPESLDLTRDTTSLRTKMSSHHLSHHPCSPAHPPSTAEGLSLSLIKSECGDLQDMSDISPYSGSAMQEGLSPNHLKKAKLMFFYTRYPSSNMLKTYFSDVKFNRCITSQLIKWFSNFREFYYIQMEKYARQAINDGVTSTEELSITRDCELYRALNMHYNKANDFEVPERFLEVAQITLREFFNAIIAGKDVDPSWKKAIYKVICKLDSEVPEIFKSPNCLQELLHE
B5: BARHL2 (protein, UniProt Q9NY43 1-387, looked up)
BarH-like 2 homeobox protein: MTMEGASGSSFGIDTILSSASSGSPGMMNGDFRPLGEARTADFRSQATPSPCSEIDTVGTAPSSPISVTMEPPEPHLVADATQHHHHLHHSQQPPPPAAAPTQSLQPLPQQQQPLPPQQPPPPPPQQLGSAASAPRTSTSSFLIKDILGDSKPLAACAPYSTSVSSPHHTPKQESNAVHESFRPKLEQEDSKTKLDKREDSQSDIKCHGTKEEGDREITSSRESPPVRAKKPRKARTAFSDHQLNQLERSFERQKYLSVQDRMDLAAALNLTDTQVKTWYQNRRTKWKRQTAVGLELLAEAGNYSALQRMFPSPYFYHPSLLGSMDSTTAAAAAAAMYSSMYRTPPAPHPQLQRPLVPRVLIHGLGPGGQPALNPLSSPIPGTPHPR
B6: PRDM8 (protein, UniProt Q9NQV8 1-689, looked up)
PR domain zinc finger protein …: MEDTGIQRGIWDGDAKAVQQCLTDIFTSVYTTCDIPENAIFGPCVLSHTSLYDSIAFIALKSTDKRTVPYIFRVDTSAANGSSEGLMWLRLVQSARDKEEQNLEAYIKNGQLFYRSLRRIAKDEELLVWYGKELTELLLLCPSRSHNKMNGSSPYTCLECSQRFQFEFPYVAHLRFRCPKRLHSADISPQDEQGGGVGTKDHGGGGGGGKDQQQQQQEAPLGPGPKFCKAGPLHHYPSPSPESSNPSAAAGGSSAKPSTDFHNLARELENSRGGSSCSPAQSLSSGSGSGGGGGHQEAELSPDGIATGGGKGKRKFPEEAAEGGGGAGLVGGRGRFVERPLPASKEDLVCTPQQYRASGSYFGLEENGRLFAPPSPETGEAKRSAFVEVKKAARAASLQEEGTADGAGVASEDQDAGGGGGSSTPAAASPVGAEKLLAPRPGGPLPSRLEGGSPARGSAFTSVPQLGSAGSTSGGGGTGAGAAGGAGGGQGAASDERKSAFSQPARSFSQLSPLVLGQKLGALEPCHPADGVGPTRLYPAAADPLAVKLQGAADLNGGCGSLPSGGGGLPKQSPFLYATAFWPKSSAAAAAAAAAAAAGPLQLQLPSALTLLPPSFTSLCLPAQNWCAKCNASFRMTSDLVYHMRSHHKKEYAMEPLVKRRREEKLKCPICNESFRERHHLSRHMTSHN
B7: PRKRA (protein, UniProt O75569 1-313, looked up)
Interferon-inducible …: MSQSRHRAEAPPLEREDSGTFSLGKMITAKPGKTPIQVLHEYGMKTKNIPVYECERSDVQIHVPTFTFRVTVGDITCTGEGTSKKLAKHRAAEAAINILKANASICFAVPDPLMPDPSKQPKNQLNPIGSLQELAIHHGWRLPEYTLSQEGGPAHKREYTTICRLESFMETGKGASKKQAKRNAAEKFLAKFSNISPENHISLTNVVGHSLGCTWHSLRNSPGEKINLLKRSLLSIPNTDYIQLLSEIAKEQGFNITYLDIDELSANGQYQCLAELSTSPITVCHGSGISCGNAQSDAAHNALQYLKIIAERK
B8: REXO4 (protein, UniProt Q9GZR2 1-422, looked up)
RNA exonuclease 4: MGKAKVPASKRAPSSPVAKPGPVKTLTRKKNKKKKRFWKSKAREVSKKPASGPGAVVRPPKAPEDFSQNWKALQEWLLKQKSQAPEKPLVISQMGSKKKPKIIQQNKKETSPQVKGEEMPAGKDQEASRGSVPSGSKMDRRAPVPRTKASGTEHNKKGTKERTNGDIVPERGDIEHKKRKAKEAAPAPPTEEDIWFDDVDPADIEAAIGPEAAKIARKQLGQSEGSVSLSLVKEQAFGGLTRALALDCEMVGVGPKGEESMAARVSIVNQYGKCVYDKYVKPTEPVTDYRTAVSGIRPENLKQGEELEVVQKEVAEMLKGRILVGHALHNDLKVLFLDHPKKKIRDTQKYKPFKSQVKSGRPSLRLLSEKILGLQVQQAEHCSIQDAQAAMRLYVMVKKEWESMARDRRPLLTAPDHCSDDA
B9: RARB (protein, UniProt P10826 1-455, looked up)
Retinoic acid receptor beta: MTTSGHACPVPAVNGHMTHYPATPYPLLFPPVIGGLSLPPLHGLHGHPPPSGCSTPSPATIETQSTSSEELVPSPPSPLPPPRVYKPCFVCQDKSSGYHYGVSACEGCKGFFRRSIQKNMIYTCHRDKNCVINKVTRNRCQYCRLQKCFEVGMSKESVRNDRNKKKKETSKQECTESYEMTAELDDLTEKIRKAHQETFPSLCQLGKYTTNSSADHRVRLDLGLWDKFSELATKCIIKIVEFAKRLPGFTGLTIADQITLLKAACLDILILRICTRYTPEQDTMTFSDGLTLNRTQMHNAGFGPLTDLVFTFANQLLPLEMDDTETGLLSAICLICGDRQDLEEPTKVDKLQEPLLEALKIYIRKRRPSKPHMFPKILMKITDLRSISAKGAERVITLKMEIPGSMPPLIQEMLENSEGHEPLTPSSSGNTAEHSPSISPSSVENSGVSQSPLVQ

What follows are molecules tested on HEK293FT cells transfected with TF library (assay: Screening of TF condensates based on fluorescent puncta). Conditions: Figure 1B numerical data; TF library screen, one value per transcriptional factor.
Format: cell-based
In short: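 Each TF construct was introduced into HEK293FT cells using PEI at 4.8 μg/ml; glucose deprivation versus normal medium lasted 12 h. Automated confocal-style imaging of tagged TF staining, 50 fields per well, gave the puncta data.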

Row | Molecule | Z score of condensed fraction
1 | B1 | 0.936
2 | B2 | 0.03488
3 | B3 | 0.5955
4 | B4 | 0.7937
5 | B5 | 1.061
6 | B6 | -0.8362
7 | B7 | 0.8928
8 | B8 | -0.3654
9 | B9 | -0.7014
